Measurements: IntAct's records for PubMed 29892012

B1: Ribosome assembly protein METTL17, mitochondrial (Homo sapiens), Q9H7H0 (parent)
chain: MAAALKCLLTLGRWCPGLGVAPQARALAALVPGVTQVDNKSGFLQKRPHRQHPGILKLPHVRLPQALANGAQLLLLGSAGPTMENQVQTLTSYLWSRHLPVEPEELQRRARHLEKKFLENPDLSQTEEKLRGAVLHALRKTTYHWQELSYTEGLSLVYMAARLDGGFAAVSRAFHEIRARNPAFQPQTLMDFGSGTGSVTWAAHSIWGQSLREYMCVDRSAAMLVLAEKLLKGGSESGEPYIPGVFFRQFLPVSPKVQFDVVVSAFSLSELPSKADRTEVVQTLWRKTGHFLVLVENGTKAGHSLLMDARDLVLKGKEKSPLDPRPGFVFAPCPHELPCPQLTNLACSFSQAYHPIPFSWNKKPKEEKFSMVILARGSPEEAHRWPRITQPVLKRPRHVHCHLCCPDGHMQHAVLTARRHGRDLYRCARVSSWGDLLPVLTPSAFPPSTAQDPSES
partner: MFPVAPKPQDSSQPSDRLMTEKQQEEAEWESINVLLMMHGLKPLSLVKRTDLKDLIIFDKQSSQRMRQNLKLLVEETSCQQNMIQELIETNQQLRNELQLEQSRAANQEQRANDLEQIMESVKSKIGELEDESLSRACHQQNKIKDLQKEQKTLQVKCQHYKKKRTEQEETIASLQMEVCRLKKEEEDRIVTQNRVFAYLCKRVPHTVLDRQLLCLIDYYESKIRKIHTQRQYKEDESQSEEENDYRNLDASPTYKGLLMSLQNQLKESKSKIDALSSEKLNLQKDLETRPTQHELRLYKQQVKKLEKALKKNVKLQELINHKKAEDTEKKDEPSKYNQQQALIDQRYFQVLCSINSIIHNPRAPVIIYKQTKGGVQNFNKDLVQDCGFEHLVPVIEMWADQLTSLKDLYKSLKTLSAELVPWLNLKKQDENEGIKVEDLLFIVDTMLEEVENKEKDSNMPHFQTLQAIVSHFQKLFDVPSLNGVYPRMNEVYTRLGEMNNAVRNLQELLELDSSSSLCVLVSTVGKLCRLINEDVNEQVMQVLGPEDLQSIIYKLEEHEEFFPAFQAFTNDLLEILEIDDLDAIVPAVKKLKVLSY
B2: Synaptotagmin-16 (Homo sapiens), Q17RD7 (parent)
chain: MVLAMASQDVQNFFQPFSSWISRVYEALQQAGDMLSASLVNISKQDSKLSDKLDQDLDNIQIQETYFEDEEQDNDWSQEDANSLFLEVDHFSCCNSDLQDSAQNSSPSLSQHAKDSCSTMSQWPNWASDDRKLPHVLSSIAEEEHHLEKQRSGLQHGFDSQLPGTLETVNGKKQVNSFGDDEELSTSSDSDEEVIKQFEISVSRSQSFRSVTSEKGKQTGLEQKPKFSRSLLTHGEDGTEVSACEDLDGASQRRYSENLSYGEDDHIPAHSQSPCERGDAKHHGTSHQESSVVQSLRRQSTEGSLEMETAFNSRGFEDSYATDSSSMWSPEEQDRTNLQVPSGVSEPISKCGDLDVIFEYRAASQKLTVTIVRAQGLPDKDRSGVNSWQVHVVLLPGKKHRGRTNIQRGPNPVFREKVTFAKLEPRDVAACAVRFRLYAARKMTRERMMGEKLFYLSHLHPEGEMKVTLVLEPRSNISSGGSPLSPSAVSHSDSTSSTQSLSHGGAPELLVGLSYNATTGRLSVEMIKGSHFRNLAVNRAPDTYGKLFLLNSVGQEMSRCKTSIRRGQPNPVYKETFVFQVALFQLSDVTLMISVYNRRTMKRKEMIGWIALGQNSSGEEEQDHWEEMKETKGQQICRWHTLLES
B3: Signal transducing adapter molecule 1 (Homo sapiens), Q92783 (parent)
chain: MPLFATNPFDQDVEKATSEMNTAEDWGLILDICDKVGQSRTGPKDCLRSIMRRVNHKDPHVAMQALTLLGACVSNCGKIFHLEVCSRDFASEVSNVLNKGHPKVCEKLKALMVEWTDEFKNDPQLSLISAMIKNLKEQGVTFPAIGSQAAEQAKASPALVAKDPGTVANKKEEEDLAKAIELSLKEQRQQSTTLSTLYPSTSSLLTNHQHEGRKVRAIYDFEAAEDNELTFKAGEIITVLDDSDPNWWKGETHQGIGLFPSNFVTADLTAEPEMIKTEKKTVQFSDDVQVETIEPEPEPAFIDEDKMDQLLQMLQSTDPSDDQPDLPELLHLEAMCHQMGPLIDEKLEDIDRKHSELSELNVKVMEALSLYTKLMNEDPMYSMYAKLQNQPYYMQSSGVSGSQVYAGPPPSGAYLVAGNAQMSHLQSYSLPPEQLSSLSQAVVPPSANPALPSQQTQAAYPNTMVSSVQGNTYPSQAPVYSPPPAATAAAATADVTLYQNAGPNMPQVPNYNLTSSTLPQPGGSQQPPQPQQPYSQKALL
B4: Protein VAC14 homolog (Homo sapiens), Q08AM6 (parent)
chain: MNPEKDFAPLTPNIVRALNDKLYEKRKVAALEIEKLVREFVAQNNTVQIKHVIQTLSQEFALSQHPHSRKGGLIGLAACSIALGKDSGLYLKELIEPVLTCFNDADSRLRYYACEALYNIVKVARGAVLPHFNVLFDGLSKLAADPDPNVKSGSELLDRLLKDIVTESNKFDLVSFIPLLRERIYSNNQYARQFIISWILVLESVPDINLLDYLPEILDGLFQILGDNGKEIRKMCEVVLGEFLKEIKKNPSSVKFAEMANILVIHCQTTDDLIQLTAMCWMREFIQLAGRVMLPYSSGILTAVLPCLAYDDRKKSIKEVANVCNQSLMKLVTPEDDELDELRPGQRQAEPTPDDALPKQEGTASGGPDGSCDSSFSSGISVFTAASTERAPVTLHLDGIVQVLNCHLSDTAIGMMTRIAVLKWLYHLYIKTPRKMFRHTDSLFPILLQTLSDESDEVILKDLEVLAEIASSPAGQTDDPGPLDGPDLQASHSELQVPTPGRAGLLNTSGTKGLECSPSTPTMNSYFYKFMINLLKRFSSERKLLEVRGPFIIRQLCLLLNAENIFHSMADILLREEDLKFASTMVHALNTILLTSTELFQLRNQLKDLKTLESQNLFCCLYRSWCHNPVTTVSLCFLTQNYRHAYDLIQKFGDLEVTVDFLAEVDKLVQLIECPIFTYLRLQLLDVKNNPYLIKALYGLLMLLPQSSAFQLLSHRLQCVPNPELLQTEDSLKAAPKSQKADSPSIDYAELLQHFEKVQNKHLEVRHQRSGRGDHLDRRVVL
partner: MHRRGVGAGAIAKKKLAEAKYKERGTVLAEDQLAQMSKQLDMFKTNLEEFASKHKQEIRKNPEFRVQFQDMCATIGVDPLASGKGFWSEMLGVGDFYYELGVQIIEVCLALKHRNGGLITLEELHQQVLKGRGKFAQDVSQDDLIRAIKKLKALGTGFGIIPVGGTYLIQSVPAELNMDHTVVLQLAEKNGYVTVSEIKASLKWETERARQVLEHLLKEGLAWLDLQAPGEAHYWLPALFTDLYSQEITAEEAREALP
B5: Ribosome assembly protein METTL17, mitochondrial (Homo sapiens), Q9H7H0 (parent)
chain: B1 chain
partner: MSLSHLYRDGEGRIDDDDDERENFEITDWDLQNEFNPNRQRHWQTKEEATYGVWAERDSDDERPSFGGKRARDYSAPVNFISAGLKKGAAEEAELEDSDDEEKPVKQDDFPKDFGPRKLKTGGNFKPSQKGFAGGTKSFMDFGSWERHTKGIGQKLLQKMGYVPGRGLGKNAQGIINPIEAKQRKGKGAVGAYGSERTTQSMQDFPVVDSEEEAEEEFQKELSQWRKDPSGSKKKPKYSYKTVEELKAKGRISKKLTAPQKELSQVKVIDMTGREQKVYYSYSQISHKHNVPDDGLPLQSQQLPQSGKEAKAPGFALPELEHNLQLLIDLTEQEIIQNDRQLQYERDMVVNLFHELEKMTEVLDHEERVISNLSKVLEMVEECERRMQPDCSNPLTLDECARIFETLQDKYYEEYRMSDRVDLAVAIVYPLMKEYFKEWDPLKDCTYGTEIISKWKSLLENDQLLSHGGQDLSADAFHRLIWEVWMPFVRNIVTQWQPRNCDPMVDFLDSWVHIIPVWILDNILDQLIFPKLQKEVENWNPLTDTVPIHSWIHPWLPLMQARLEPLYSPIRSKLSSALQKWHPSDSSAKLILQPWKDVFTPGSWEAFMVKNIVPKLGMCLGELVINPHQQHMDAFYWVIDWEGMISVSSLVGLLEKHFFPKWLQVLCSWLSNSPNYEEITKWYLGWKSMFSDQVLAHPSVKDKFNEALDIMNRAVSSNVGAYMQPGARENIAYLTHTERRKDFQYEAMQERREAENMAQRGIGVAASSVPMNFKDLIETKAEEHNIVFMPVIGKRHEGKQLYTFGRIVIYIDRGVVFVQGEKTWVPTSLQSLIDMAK

Variants of: B1
Settings: with cep70_human CEP70, Q8NHQ1

effect of a mutation on the interaction | Variant
with no effect | R212H

Variants of: B2
Settings: with praf1_human RABAC1, Q9UI14
praf1_human RABAC1, Q9UI14, sequence (Q9UI14 whole entry): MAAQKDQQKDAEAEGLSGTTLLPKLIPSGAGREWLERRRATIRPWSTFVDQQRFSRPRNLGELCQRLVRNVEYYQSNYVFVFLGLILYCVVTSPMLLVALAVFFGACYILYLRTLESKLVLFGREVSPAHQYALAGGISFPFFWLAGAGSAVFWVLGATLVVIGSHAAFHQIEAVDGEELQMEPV

effect of a mutation on the interaction | Variant
with no effect | R441W

Variants of: B2
Settings: with rtn4_human RTN4, Q9NQC3
rtn4_human RTN4, Q9NQC3, sequence (Q9NQC3 whole entry): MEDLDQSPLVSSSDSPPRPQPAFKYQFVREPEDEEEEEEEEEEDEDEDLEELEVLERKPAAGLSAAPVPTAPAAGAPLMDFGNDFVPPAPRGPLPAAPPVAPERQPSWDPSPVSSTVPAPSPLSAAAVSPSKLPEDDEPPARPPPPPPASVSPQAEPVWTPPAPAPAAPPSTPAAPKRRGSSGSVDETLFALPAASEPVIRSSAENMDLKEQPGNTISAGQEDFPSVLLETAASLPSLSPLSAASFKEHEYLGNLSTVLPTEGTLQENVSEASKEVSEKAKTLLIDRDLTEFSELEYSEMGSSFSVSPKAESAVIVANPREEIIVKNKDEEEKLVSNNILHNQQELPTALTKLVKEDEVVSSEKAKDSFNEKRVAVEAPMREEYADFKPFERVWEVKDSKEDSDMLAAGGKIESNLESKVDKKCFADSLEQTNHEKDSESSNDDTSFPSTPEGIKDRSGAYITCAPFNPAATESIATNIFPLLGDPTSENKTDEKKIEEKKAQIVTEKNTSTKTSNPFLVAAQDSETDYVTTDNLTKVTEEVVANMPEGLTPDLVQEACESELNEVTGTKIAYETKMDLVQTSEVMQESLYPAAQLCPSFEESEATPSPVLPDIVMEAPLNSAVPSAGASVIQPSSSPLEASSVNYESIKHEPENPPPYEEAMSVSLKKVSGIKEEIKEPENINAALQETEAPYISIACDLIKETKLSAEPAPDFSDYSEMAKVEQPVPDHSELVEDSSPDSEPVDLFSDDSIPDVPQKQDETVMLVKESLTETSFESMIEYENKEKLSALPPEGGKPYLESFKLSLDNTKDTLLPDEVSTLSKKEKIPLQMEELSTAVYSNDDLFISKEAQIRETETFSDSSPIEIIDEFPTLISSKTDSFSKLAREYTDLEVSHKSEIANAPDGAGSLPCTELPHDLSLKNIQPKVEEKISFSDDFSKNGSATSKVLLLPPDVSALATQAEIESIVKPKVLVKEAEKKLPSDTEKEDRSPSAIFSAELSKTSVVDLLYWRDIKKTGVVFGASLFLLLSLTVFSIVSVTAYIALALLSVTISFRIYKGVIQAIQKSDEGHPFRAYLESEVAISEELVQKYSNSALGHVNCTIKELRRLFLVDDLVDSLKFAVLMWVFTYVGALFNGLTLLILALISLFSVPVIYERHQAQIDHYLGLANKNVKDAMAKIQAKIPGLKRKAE

effect of a mutation on the interaction | Variant
with no effect | R441W

Variants of: B3
Settings: with hgs_human HGS

effect of a mutation on the interaction | Variant
with no effect | H331L

Variants of: B4
Settings: with snf8_human SNF8, Q96H20

effect of a mutation on the interaction | Variant
with no effect | A127S

Variants of: B5
Settings: with tfp11_human TFIP11, Q9UBB9

effect of a mutation on the interaction | Variant
disrupting interaction strength | R212H
